# Laboratory results reported in publication PMC9254494, “Modulation of synaptic plasticity, motor unit physiology, and TDP-43 pathology by CHCHD10” (Acta Neuropathologica Communications, 2022).
# B1: His-tagged CHCHD10^S59L recombinant protein (natural protein, human, UniProt Q8WYQ3 17-142, looked up)
# chain: AAPSAHPPAHPPPSAAAPAPAPSGQPGLMAQMATTAAGVAVGLAVGHVMGSALTGAFSGGSSEPSQPAVQQAPTPAAPQPLQMGPCAYEIRQFLDCSTTQSDLSLCEGFSEALKQCKYYHGLSSLP
# Target: Recombinant full-length human TDP-43 (human, UniProt Q13148 1-414)
# Sequence (Q13148 whole entry): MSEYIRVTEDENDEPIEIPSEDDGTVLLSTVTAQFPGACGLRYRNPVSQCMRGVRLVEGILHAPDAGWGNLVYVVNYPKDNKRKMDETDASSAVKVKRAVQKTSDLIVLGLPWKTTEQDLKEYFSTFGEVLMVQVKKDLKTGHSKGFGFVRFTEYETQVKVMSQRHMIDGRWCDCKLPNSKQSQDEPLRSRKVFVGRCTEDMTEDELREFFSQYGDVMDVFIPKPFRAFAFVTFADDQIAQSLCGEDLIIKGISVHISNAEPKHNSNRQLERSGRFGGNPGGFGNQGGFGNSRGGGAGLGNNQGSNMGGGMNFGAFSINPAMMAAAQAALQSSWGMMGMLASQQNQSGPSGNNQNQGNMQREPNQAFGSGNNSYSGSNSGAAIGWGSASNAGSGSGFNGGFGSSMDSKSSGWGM
# Assay: cell-based or functional assay
binder,measurement,value
B1,"area of high-height particles > 10 nm by atomic force microscopy after co-incubation of TDP-43 (1 μM) with CHCHD10^S59L (1 μM), 37 °C, 8 h, shaking, against TDP-43 alone",> 3 fold
